Data as given in article PMC7473840 (2018).
Values belong to the binder of their own block, whether it stands above or below them. No end group written: not given here.

Target: FMRP (Homo sapiens, UniProt Q06787)

Kd: 0.42 µM
B1: Kv1.2 C-terminal phosphopeptide pS440 C-terminus (peptide)
chain: TSCPKIPSSPDLKKS
modifications: also: phosphoserine pS440 plus a second phosphosite, positions not given here

Kd: 33.9 µM
B2: Kv1.2 C-terminal phosphopeptide pS440 C-terminus (peptide)
chain: TSCPKIPSSPDLKKS
modifications: also: phosphoserine pS440, position in chain not given here
